Source: patent EP4606382A1 (Fundació Centre de Regulació Genòmica, dated 2025)

Molecular target: T1, NanoLuc-cTAGE5-CC2 (predicted binding region of cTAGE5 coiled-coil 2 with a Nanoluciferase tag at the …)
T1 construct: The fusion construct was expressed inside live HEK293T cells; also called C5-CC2; c5-CC2
T1 chain: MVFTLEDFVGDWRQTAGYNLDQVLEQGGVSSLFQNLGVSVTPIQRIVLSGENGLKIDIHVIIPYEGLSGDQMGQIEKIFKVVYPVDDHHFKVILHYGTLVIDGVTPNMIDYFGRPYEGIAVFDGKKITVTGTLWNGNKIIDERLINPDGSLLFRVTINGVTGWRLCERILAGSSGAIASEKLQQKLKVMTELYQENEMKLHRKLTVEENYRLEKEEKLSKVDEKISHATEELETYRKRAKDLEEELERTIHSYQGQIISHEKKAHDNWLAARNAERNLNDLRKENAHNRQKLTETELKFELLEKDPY
Assay: NanoBRET in live HEK293T cells (HaloTag 618 acceptor, NanoLuc donor)

binding result: binds
B1: Halo-T1-CC2 (portion of the coiled-coil region CC2 of TANGO1 with an N-terminal fusion of HaloTag) (other)
chain: MAEIGTGFPFDPHYVEVLGERMHYVDVGPRDGTPVLFLHGNPTSSYVWRNIIPHVAPTHRCIAPDLIGMGKSDKPDLGYFFDDHVRFMDAFIEALGLEEVVLVIHDWGSALGFHWAKRNPERVKGIAFMEFIRPIPTWDEWPEFARETFQAFRTTDVGRKLIIDQNVFIEGTLPMGVVRPLTEVEMDHYREPFLNPVDREPLWRFPNELPIAGEPANIVALVEEYMDWLHQSPVPKLLFWGTPGVLIPPAEAARLAKSLPNCKAVDIGPGLNLLQEDNPDLIGSEIARWLSTLEISGEPTTEDLYFQSDNAIASELRQKVEILNELYQQKEMALQKKLSQEEYERQEREHRLSAADEKAVSAAEEVKTYKRRIEEMEDELQKTERSFKNQIATHEKKAHENWLKARAAERAIAEEKREAANLRHKLLELTQKMAMLQEEP
modifications: HaloTag labeled with the HaloTag 618 fluorescent ligand
notes: The fusion construct was expressed inside live HEK293T cells; also called Halo-TANGO1-CC2; TANGO1-CC2
